*: point of attachment. FITC = O=C1OC2(c3ccc(O)cc3Oc3cc(O)ccc32)c2ccc(NC(=S)*)cc21; βAla = NCCC(=O)O
Biological target: T1, FITC-MLL peptide (SMILES …)
T1 peptide: {FITC-βAla}-DAGNILPSDIMDFVLKNTP-NH2
Test: fluorescence polarisation

binding result: binds
B1: GACKIX N627C (GACKIX domain of mouse CBP, residues 586–672, N627C mutant), unlabeled (domain or fragment)
chain: not shown

Source: PMC10900128 (Chembiochem : a European journal of chemical biology, 2018)
